Assay: soluble on expression in E. coli; label from the status in PepcDB or PDB records

Sequence | soluble on expression in E. coli
MATVKTVLVKGRCNSRGAYPLAVQVLHKRKKKVFYTGYSITPCEFDSFSGRVLFNGVYTMETVRRMNRTCRKICKILDKAIGILEREGNEYTTCDISRVYETLTGKVGFYSYFRERIRVLFDTGHEGTAKAYEATLHSMQKHLCKTDFPFAHLSSRLVIKYRDTLLEAGVGKNTIGFYLHNMKAVYRRGCLELNLVFPSPFCNIRIRSEKTVKQSLPMKQVKSLANLSLSVGTPECLARDVFMFSIYTRGMSFVDIAFLKKSDIFPGVIRYRRQKTGQLLEIGINRQIQNLLERYGDTSGDYLFPLVDESETPYSGYKKAYNRMRYALKKVS | not soluble
MAVYTDITEDELRNFLTQYDVGSLTSYKGIAEGVENSNFLLHTTKDPLILTLYEKRVEKNDLPFFLGLMQHLAAKGLSCPLPLPRKDGELLGELSGRPAALISFLEGMWLRKPEAKHCREVGKALAAMHLASEGFEIKRPNALSVDGWKVLWDKSEERADEVEKGLREEIRPEIDYLAAHWPKDLPAGVIHADLFQDNVFFLGDELSGLIDFYFACNDLLAYDVSICLNAWCFEKDGAYNVTKGKALLEGYQSVRPLSEAELEALPLLSRGSALRFFLTRLYDWLTTPAGALVVKKDPLEYLRKLRFHRTIANVAEYGLAGE | soluble
MNPIVINRLQRKLGYTFNHQELLQQALTHRSASSKHNERLEFLGDSILSYVIANALYHRFPRVDEGDMSRMRATLVRGNTLAELAREFELGECLRLGPGELKSGGFRRESILADTVEALIGGVFLDSDIQTVEKLILNWYQTRLDEISPGDKQKDPKTRLQEYLQGRHLPLPTYLVVQVRGEAHDQEFTIHCQVSGLSEPVVGTGSSRRKAEQAAAEQALKKLELE | soluble
MGRFHRHDDGTVHSHDHDHHGHSHDVGDHSGYETGRERIEVLEDIFHENDHCAADNKELFDAHQVRCINIMSSPGAGKTTVLQHVLRAAEGKVRVGVVEGDIETSLDADRLTGFGAQISLLNTGNGFGGECHLDAPMVSRALRGLDLDTLDVVLIENVGNLVCPAEFEVGEHSKAMIYSVTEGEDKPLKYPVMFRSVDAVVINKIDLLPYLDFDMELFMKNLRQVNPDAKVFEVSAKTGEGLDGWIEWLVGAK | not soluble
MPDSDTGSNMAHTMTAAVQQAQGVDNPDDLAAVAMALATGAVKGARGNSGVVLSQVLRGIAHHADSGRIDAHVIQEALRSSLDFVAAAISDPVEGTVITVLRAAAIAATNSEDRSLAAVVSVAAHAARIALAETPSQLQVLRDAKVVDAGGQGLVILLDCLEHVVTGTATSYDPHIIETTEQQQSHGTSGYLEVMCFIAGVEVSHLHDLLAPLGDCLVIGPISDTSATVHIHSTDAATVISTLYATGTITDLHIEVLPETPKVVHPKRIVLALTPPGDLAQLYTDAGALVVVRDGHHFAIARSTNLGQAETPLADGIEIVNELVARSHQSGAQEVILLPNGLLTTQEMAAVERSSQAFKQSITMLPTGSLVRGLAALSVHDPQQSLAVATYAMTEAMSGMRTAVIERAEHAALTPAGACAKGDLLVHLGTEPIAVAEQPEEALRIACRRLLDIGGEQILILARKELALTPDNHSLTGPHTDVEINQYDVDRLGALIEIGVE | not soluble
GPGSMSAAGVTVRRAEREDTQRMYDLIMELAIYERAPECVVVSKAQMEEEGFGERPLWSAFVAELQETNDVKPRVIGMALYYYRYSTWRGRMLYLEDFIVTESHRGIGAGKMLFERVLQQAKEEGCHGMVWQALDWNAPAIEFYKKYDAEIDPGWVNCMLKF | soluble
MSLVQSINTKVDLTIDATAYTGLTDYGKIMIGDKGFEFFNSRDVRKFVQIPWEEVDQVIVSVMLKGKWIPRYAIKTKRNGTYTFASKRPKEVLRKIRVYVDPANMVSSLSFFDVMKRSFRSIFSKKKNKNKEGHHHHHH | not soluble
MQIVEAIYEDGVLKLLKNLKLKEHSKVIIKVIDEEEIEKILDSRDYLEHHHHHH | not soluble
MDRRSQILTIAGHLFSQRGYHATSMRELARHLNLQGGSLYAHIQSKEELLLEVVRQAAERFQKVLEELPSGDPVTRMKALVKGHLRVIAEELPRATVFFHEWKHLSPPLLEEAKALRRRYEEGVQAVVEEGVRAGVFRVENVRLATLFVLSALNWTYQWYRPDGPLSLEALAEAYAELVLKALGVAASPEGERREEGGEDGEA | soluble
NKFNTWNDSRGNYWSDYEGSDENGDGIGDSAYAVNPEAGSMDYMPLMEYLHSSPVLPTARFTSDITEGFAPLSVRFKDFSENATSRLWMFGDGNTSDSPSPLHTFFNEGEYIVSLIVSNENDSDSASVTIRA | soluble
MSEKRLPLKPVLRIDFPPGERLGHGKVELMQLIAETGSISAAGRAMDMSYRRAWLLVDALNHMFRQPVICSQRGGKQGGGAALTVFGAELLERYRGMEERMNEALREDIDWLEANRNPQDALNRDREPPTL | soluble
MSTSSRTPSPSSLSACGGPSSSTTTAHPSSSPKSKTSVTSSRSDTDSVIPEHKPSSASSFSIGRLLFRSSGSSNSTKRDSVDSGKDDETGRSPATSRPGSPNPGGDKSPQMSTSRRLAGFASRSIRKSQWRLFKHRTFFGSQRSSMKKNQLQLPRLTLRHPSIDSSAMPLQLDVDENASGEGSDDFLQIRRSTQRRWTDSDTTGRLRDSRDSSDFNDSHDTLDIAGTSAHGVADSSSHHHHNYSMTAPVSPNVPLSASSSHSEGWKYSSQKLLWKLKPKYAYSHASSTSSSTDSAWKSLDSMTWRSVDGAEVVLRGARLENLSEIERSALQLLAAQRLTKMLPGVNLGKPKALRQKRQKLVKSNRTPTVADVQRRASGTPMPEEKRVFGVSLAMCMLNEKRLDQESRCRSLDDSTVIMLNKSKAKPTKSEPEMMSHTMPEDRKWLYPSTQNLYPTSTSNPSSPSPIMGSAPPTGSILPSANLLSAEPTTCEPQQVTGRFLKKQRPASASFSCSLDANIDDVDPHALQVPKIVENCTQYLMTYGLTQVGLFRVAGNTKRCRQLRNALEKVGGGAVINDNMVENTTSHDVATLLKEYFRDLPQSLLPGEHYSAYIGAAKLNVDERIEAIRLLFALLVSPILDTLFVLLKFLHEVSCHSQDRHDEDGELLSGNKMDARNLATIFAPSILRVDHDKLHETLAENEHQVIIVETMISNVEEIFKIPKELQCKIYTKLRETEPDRLDRILNHLSKMDSHESHPGVLLSPFPATLEEDSSPRHHRHGDHSHIGRQSPLARELTTNGKVKVQSQRSGSWPFSLTKTQTSPSRPEGQHFFPADSQDGPGPSHSHHDPSTSGTTMSATTTPGPGRKTDFSMKAADDSGRDSEFCSDELTFGTISQPETARERSVTMSTACGSPSTSNSKKTPMMASLQGATTSKSVDARSPSRERVDIRSAARSSAAAARRRLRNVVRAFRFTSMTRSTPDIAQSS | not soluble
MGSDKIHHHHHHMIDIAEETGYQYEILISTRTSDEENYYYDEIKVVSRNTRKRSEGLARAVKSATGNYAFIFEPSVRYSLTYADLIYGYINLGTSEVLVSNILGFQTDVIKNVGNWRPLTCGEDIDLMARAFDSYGVISYPMGGLTGLDIDDLIYGKWRNRIEKALAMRDLVIAANLKHNNIAEMAESMGIDLPTYEWLISGRILSYLSGIRPYEKNVNNYIFIMERIIESYISQDYRRIDTVSASPYISLSNRTRKYLSSVSDLWTEQNTDNKYPRESV | not soluble
MQMLIPQRLLLILNPILMMKRKKRKKRKKRRERETMMKIPRILKKLRRKRRTRRKRRKRRKRRRRKRRKRRRKRSPRKRRKRRNKDAFYILIISDPSRSLLFGFRKFSIIIQCLTYFSFHILFHNL | soluble
MGSDKIHHHHHHMRLTILGSSGSVPAPGNPASGYLLTSPDAPAVIMDMGPGVLAAVQEIQDPADAHVIFSHLHTDHCADFASLMVWRRFHPTLAAKSRNLLFGPEDTPNRLGRLSSDEPDGVDDMSDTFAFDAWEERKPELIDNFTVTPFRVVHPIETYALRVEEHRTGASITYSGDSAYTEALIDAARNVDIFLCEATWGTSCDDKAPGMHMCGQDAGRIAAAAGVKKLIITHVPPWIDAEATVAAAAEHFDGPIELARSGMVIEF | not soluble
MGSDKIHHHHHHVTITNPLPIDRNGEMVEISMAEITGKLQLPDTAQVIVLDENGLEVPYQITYDDMLIFPASVKGDASAVYTIAEGTPQPVDVVACGRQYPERLDDVAWENDRAAYRAYGPALQEKGERAFGYDIWTKSVSEPVVEDRYDGDLNRGISYHVDHGNGMDCYAVGPTLGGGTAALFPDSTIVYPYCYKDCEILDNGPLRFTAKLVYNPLVVKGDSSVIETRIISLDKGSQLNKTVVSFDNLQEITPVVTGIVLHKQNPMGYSFDADAGYIAYADSTENAANNNGVIYIGAVFPATVKGAFAQVFSEKERKERGDALGHVLAVNDYEPGAEYIYYWGSGWSKYGFEADTDWNKYLEEYARKIRNPLAVAIK | not soluble
MGSDKIHHHHHHMLSNLWKRQAPQMVGIDIGSHEIKAILLSKTADGYKILSHAAVPVKKGAVNDHEIRDSDAVLESLRLIKRSLPKSVKYAAAAVSGSAVMTKVIYMDASLSEEEMETQIEIEADNLIPYSLDEVSIDFETLSVNSADPSKVDVLLSACRTENIDARVDSLDDINLEAKVIDVEGYALGRSFELVAAQLPDGAEDKVVALVDIGANMTTFAVVEKGETTFIREQAFGGEQFTQSILSFYGMSHEQAEKAKLEGDLPRNYMFEVLSPFQTQLLQQIKRTLQIYCTSSGKDKVDHIVLCGGTSKLEGMANLLTNELGVHTIIADPFLGCLHADEQVKTQLQPTINKYMVACGLALRSYSQWRT | not soluble
MNTFVFLPLAFFVLLESFEAQEPPGPTARLNMLDNYMKRLNLTDIHFSDPGGIVKVDTVVNKYQPLTEEEIIRKMKKTVNDTAYDIANGKDPDLIEKLDKKTVQLPKPIRSRPQF | not soluble
MGSDKIHHHHHHMWKSISQVLAEQFGAYYFIKHKEKLYSGEMNEIWLINDEVQTVFVKINERSYRSMFRAEADQLALLAKTNSINVPLVYGIGNSQGHSFLLLEALNKSKNKQSSFTIFAEKIAQLHQIQGPDKYGLDFDTWLGPIYQPNDWQTSWAKFFSENRIGWQLQICKEKGLIFGNIDLIVQIVADTLSKHNPKPSILHGNLWIENCIQVDDKIFVCNPACYWGDRECDIAFSSLFEPFPTNFYQRYNEIYPLEEGYLERKLIYQLYYLLNFSYRYYNKKQSYVSLTQKLINQILHKIDK | not soluble
MLEADDQGCIEEQGVEDSANEDSVDAKPDRSSFVPSLFSKKKKNVTMRSIKTTRDRVPTYQYNMNFEKLGKCIIINNKNFDKVTGMGVRNGTDKDAEALFKCFRSLGFDVIVYNDCSCAKMQDLLKKASEEDHTNAACFACILLSHGEENVIYGKDGVTPIKDLTAHFRGDRSKTLLEKPKLFFIQACRGTELDDGIQADSGPINDTDANPRYKIPVEADFLFAYSTVPGYYSWRSPGRGSWFVQALCSILEEHGKDLEIMQILTRVNDRVARHFESQSDDPHFHEKKQIPCVVSMLTKELYFSQ | soluble
IVRPPFTYATLIRQAIMESSDRQLTLNEIYSWFTRTFAYFRRNAATWKNAVRHNLSLHKCFVRVENVKGAVWTVDEVEYQKRRSQKITGSPTL | soluble

Source: the DeepSol protein solubility set
